Assay [1] addresses HR-C1 (1147-1185) (SARS coronavirus (Urbani strain)).
For assay [2], the target named is HR-C2 (1165-1185) (SARS coronavirus (Urbani strain)).
Assay [3] has as its target HR-C3 (1158-1185) (SARS coronavirus (Urbani strain)).
Assay [4] concerns the target HR-C4 (1151-1185) (SARS coronavirus (Urbani strain)).
Assay [5] has as its target HR-C1 (1147-1185) (SARS coronavirus (Urbani strain)). Put plainly: CD thermal denaturation of the mixture at 222 nm.
Assay [6] shares this target. As to the kind of experiment: SEC of equimolar mixture (Superdex 75).
For assay [7] the target is unchanged. As to the kind of experiment: CD at 222 nm of the peptide mixture, 22 °C, 0.05 M K2PO4 buffer.

Like-named read-outs stand apart in the source and are kept apart here.

Consider IQESLTTTSTALGKLQDVVNQNAQALNTLVKQLSS (modifications not checked) [HR-N10 (916-950)], for which the results for the T1/2 of the complex in assay [1] and in assay [4] were 57 °C and 56 °C, respectively. For the same molecule, the [θ]222 observed (degrees·cm^2·dmol^-1) in assay [1] was -17700; in assay [2], -3800; in assay [3] it was -4900; in assay [4], -17900. In addition, in assay [5], the increase of T1/2 from HR-C1 was 24 °C.
In assay [1], TSTALGKLQDVVNQNAQALNTLVKQLSSNFGAISS (modifications not checked) [HR-N11 (923-957)] showed a [θ]222 observed (degrees·cm^2·dmol^-1) of -8000.
In assay [1], FNKAISQIQESLTTTSTALGKLQDVVNQNAQALNT (modifications not checked) [HR-N9 (909-943)] came in with a T1/2 of the complex of 36 °C and a [θ]222 observed (degrees·cm^2·dmol^-1) of -10800. Also, the higher molecular weight complex, percent of observed SEC area units in assay [6] stood at 30%. In addition, the rise of T1/2 relative to HR-C1 alone in assay [5] was 3 °C.

B1: HR-N2 (916-973) (peptide)
peptide: IQESLTTTSTALGKLQDVVNQNAQALNTLVKQLSSNFGAISSVLNDILSRLDKVEAEV
modifications: not checked
For the molecule B1, in assay [1], the T1/2 of the complex came out at 74 °C and the [θ]222 observed (degrees·cm^2·dmol^-1) is -17900. For the same molecule, the rise of T1/2 relative to HR-N2 alone in assay [5] amounted to 6 °C.
The molecule FNGIGVTQNVLYENQKQIANQFNKAISQIQESLTT (modifications not checked) [HR-N6 (888-922)] registered a [θ]222 observed (degrees·cm^2·dmol^-1) in assay [1] of -8600.
In assay [1], QKQIANQFNKAISQIQESLTTTSTALGKLQDVVNQ (modifications not checked) [HR-N8 (902-936)] showed a [θ]222 observed (degrees·cm^2·dmol^-1) of -7900.
Regarding MQMAYRFNGIGVTQNVLYENQKQIANQFNKAISQI (modifications not checked) [HR-N5 (882-916)], the [θ]222 observed (degrees·cm^2·dmol^-1) in assay [7] was -8500.
Regarding QNVLYENQKQIANQFNKAISQIQESLTTTSTALGK (modifications not checked) [HR-N7 (895-929)], the [θ]222 observed (degrees·cm^2·dmol^-1) in assay [1] is -7400.
